Source: patent publication US11872270B2, “A*03 restricted peptides for use in immunotherapy against cancers and related methods” (Immatics Biotechnologies GmbH, priority 2018, dated 2024)

What was measured:
CD8+ T cells = experiment: In vitro T-cell priming assay (immunogenicity) with aAPCs loaded with peptide/MHC complexes and anti-CD28 antibody; type: cell-based, human; conditions: for Wells positive [%]: in vitro immunogenicity; for in vitro immunogenicity (peptide-specific CD8+ T cell response): healthy donors, multimer staining after three cycles of stimulation
HLA-A*03:01 = HLA-A*03:01 (Homo sapiens, UniProt P04439); experiment: MHC binding assay (UV-ligand exchange, β2m ELISA); conditions: binding to HLA-A*03:01, UV-ligand exchange, β2m ELISA
How it was run: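 Peptide-MHC complexes formed by UV-ligand exchange of a UV-cleavable peptide for the test peptide; exchange yield quantified by β2m ELISA. Streptavidin-coated capture, samples diluted 100-fold, 1 h at 37 °C, HRP anti-β2m detection, TMB read at 450 nm against HLA-A*02:01/MLA-001 monomer standards (15–500 ng/ml).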

[1] = HLA-A*03 restricted peptides, Table 10b

Substance	Peptide exchange (MHC class I binding score, peptide exchange yield) (HLA-A*03:01)	also measured
248 (GLASRILDAK; listed as Homo sapiens) [compound 248]		Wells positive [%] (CD8+ T cells; Table 10a): + (<20% = +)
ATSGVPVYK (listed as Homo sapiens) [SEQ ID NO: 249]		in vitro immunogenicity (peptide-specific CD8+ T cell response) (CD8+ T cells): peptide-specific in vitro CD8+ T cell responses
77 (VVDDSQLPK; listed as Homo sapiens) [compound 77]	++ (>20% = ++)	Wells positive [%] (CD8+ T cells; [1]): “+” (1-19% = +)
237 (VLYGPAGLGK; listed as Homo sapiens) [compound 237]		Wells positive [%] (CD8+ T cells; Table 10a): + (<20% = +)
46 (VVTGNVPLK; listed as Homo sapiens) [compound 46]	+++ (>50 = +++)	Wells positive [%] (CD8+ T cells; [1]): “+” (1-19% = +)
33 (KLLEDMVEK; listed as Homo sapiens) [compound 33]	++ (>20% = ++)	Wells positive [%] (CD8+ T cells; [1]): “+” (1-19% = +)
64 (SVLSRMLVR; listed as Homo sapiens) [compound 64]	++++ (>75% = ++++)	Wells positive [%] (CD8+ T cells; [1]): “+” (1-19% = +)
45 (KCYEVGMMK; listed as Homo sapiens) [compound 45]	++++ (>75% = ++++)	Wells positive [%] (CD8+ T cells; [1]): “+” (1-19% = +)
29 (KVLSILSRLK; listed as Homo sapiens) [compound 29]	+++ (>50 = +++)	Wells positive [%] (CD8+ T cells; [1]): “+” (1-19% = +)
214 (KLFTSVFGVGLK; listed as Homo sapiens) [compound 214]	++++ (>75% = ++++)	Wells positive [%] (CD8+ T cells; [1]): “+” (1-19% = +)
249 (ATSGVPVYK; listed as Homo sapiens) [compound 249]		Wells positive [%] (CD8+ T cells; Table 10a): ++++ (>=70% = ++++)
232 (AVAPPTPASK; listed as Homo sapiens) [compound 232]		Wells positive [%] (CD8+ T cells; Table 10a): + (<20% = +)
234 (VVFPFPVNK; listed as Homo sapiens) [compound 234]		Wells positive [%] (CD8+ T cells; Table 10a): + (<20% = +)
GLASRILDAK (listed as Homo sapiens) [SEQ ID NO: 248]		in vitro immunogenicity (peptide-specific CD8+ T cell response) (CD8+ T cells): peptide-specific in vitro CD8+ T cell responses
233 (KTYETNLEIKK; listed as Homo sapiens) [compound 233]		Wells positive [%] (CD8+ T cells; Table 10a): + (<20% = +)
94 (GMTLLCEALK; listed as Homo sapiens) [compound 94]	++ (>20% = ++)	
258 (QVRDTLKIVFK; listed as Homo sapiens) [compound 258]	+++ (>50 = +++)	
220 (ALPRQAFHSK; listed as Homo sapiens) [compound 220]	++++ (>75% = ++++)	
65 (RTIEELQNK; listed as Homo sapiens) [compound 65]	+++ (>50 = +++)	
18 (RLYYSFKNITK; listed as Homo sapiens) [compound 18]	++++ (>75% = ++++)	
149 (TVFLSKYLKK; listed as Homo sapiens) [compound 149]	+++ (>50 = +++)	
40 (ALNDRFAGY; listed as Homo sapiens) [compound 40]	+++ (>50 = +++)	
147 (KLFMPRPK; listed as Homo sapiens) [compound 147]	+++ (>50 = +++)	
137 (TVYVAMCHKF; listed as Homo sapiens) [compound 137]	++++ (>75% = ++++)	
136 (ALSRMSQQY; listed as Homo sapiens) [compound 136]	++++ (>75% = ++++)	
144 (PLAMLAATCNK; listed as Homo sapiens) [compound 144]	++ (>20% = ++)	
129 (ALARVSSVKL; listed as Homo sapiens) [compound 129]	+++ (>50 = +++)	
